Experimental findings from US20100016313A1, “INTESTINAL ALKALINE PHOSPHATASE MODULATORS AND USES THEREOF” (Burnham Institute for Medical Research, priority 2008, published 2010) are described below.

The data set is described as follows: Kinetic parameters of recombinant mouse dIAP, gIAP and EAP using p-NPP as substrate. Type of data set: biochemical. Conditions: p-NPP as substrate, pH 9.8; means ± SD. From the text: The epithelium of the mouse small intestine expresses two intestine specific AP genes, Akp3 and Akp6, and low levels of Akp5, which is not intestine specific (Narisawa, et al, 2007). AP proteins encoded by Akp3, Akp5 and Akp6 were designated duodenal IAP or dIAP, embryonic AP or EAP and global IAP or gIAP, respectively.

B1: EAP: recombinant mouse embryonic alkaline phosphatase encoded by Akp5 (protein, UniProt P24823 19-502, looked up)
Alkaline phosphatase, germ …: VIPVEEENPAFWNRKAAEALDAAKKLKPIQTSAKNLVILMGDGMGVSTVTATRILKGQQQGHLGPETQLAMDRFPHMALSKTYNTDKQIPDSAGTGTAFLCGVKTNMKVIGLSAAARFNQCNTTWGNEVVSVMHRAKKAGKSVGVVTTTSVQHASPAGTYAHTVNRGWYSDAQMPASALQDGCKDISTQLISNMDIDVILGGGRKFMFPKGTPDQEYPTDTKQAGTRLDGRNLVQEWLAKHQGARYVWNRSELIQASLNRSVTHLMGLFEPNDMKYEIHRDPAQDPSLAEMTEVAVRMLSRNPKGFYLFVEGGRIDHGHHETVAYRALTEAVMFDSAVDKADKLTSEQDTMILVTADHSHVFSFGGYTQRGASIFGLAPFKAEDGKSFTSILYGNGPGYKLHNGARADVTEEESSNPTYQQQAAVPLSSETHSGEDVAIFARGPQAHLVHGVQEQNYIAHVMAFAACLEPYTDCGLASPAGQSS
For B1, the Km – broadly, the substrate concentration at which the rate is half of its maximum – came to 140 ± 30 µM; the kcat – broadly, the number of substrate molecules converted per active site and unit of time at saturation – was determined as 8.4 ± 1.1 s⁻¹.
